As usually defined, the pIC50 is −log10 of the IC50, conventionally taken in molar units. Usually Kd stands for the free concentration of one partner at which half of the binding sites on the other are occupied at equilibrium, for simple one-to-one binding.

Some results are limits rather than exact numbers.

Here are results for 7 molecules from patent publication US20190359693A1.

The target of experiment [1] is hemagglutinin (HA) of influenza virus B/Florida/04/06 (Yamagata) (influenza B virus). In words: cell-based or functional assay.
The target of experiment [2] is hemagglutinin (HA) of influenza virus B/Lee/40 (Old) (influenza B virus) (UniProt P03460). As to the kind of experiment: cell-based or functional assay.
Experiment [3] has as its target hemagglutinin (HA) of influenza virus H1N1 A/Puerto Rico/8/34-MA (influenza A virus). In words: cell-based or functional assay.
Experiment [4] has as its target hemagglutinin (HA) of influenza virus H3N2 A/HK/1/68-MA (influenza A virus). As to the kind of experiment: cell-based or functional assay.
For experiment [5], the target named is hemagglutinin (HA) of influenza virus H5N1 A/Vietnam/1194/04 (influenza A virus). As to the kind of experiment: cell-based or functional assay.
For experiment [6], the target named is hemagglutinin (HA) of influenza virus H6N1 A/Taiwan/2/2013 (influenza A virus). In words: cell-based or functional assay.
Experiment [7] addresses hemagglutinin (HA) of influenza virus H7N3 A/NIBRG/60 (A/mallard/Netherlands/12/00) (influenza A virus). As to the kind of experiment: cell-based or functional assay.
Experiment [8] addresses HA of B/Brisbane/60/2008 (Victoria) (influenza B virus). As to the kind of experiment: cell-based or functional assay.
The target in experiment [9] is HA of B/Florida/04/2006 (Yamagata) (influenza B virus). In words: cell-based or functional assay.
Experiment [10] deals with hemagglutinin (HA) of influenza B/Florida/04/06 (Yamagata) (influenza B virus). In words: cell-based or functional assay.
Experiment [11] addresses hemagglutinin (HA) of influenza B/Harbin/7/94 (Yamagata) (influenza B virus). As to the kind of experiment: cell-based or functional assay.
For experiment [12], the target named is hemagglutinin (HA) of influenza B/Lee/40 (Old) (influenza B virus) (UniProt P03460). In words: cell-based or functional assay.
The target of experiment [13] is hemagglutinin (HA) of influenza B/Malaysia/2506/04 (Victoria) (influenza B virus). In words: cell-based or functional assay.
Experiment [14] concerns the target hemagglutinin (HA) of influenza B/Massachusetts/02/12 (Yamagata) (influenza B virus). As to the kind of experiment: cell-based or functional assay.
For experiment [15], the target named is HA of H3N2 A/Brisbane/10/2007 (influenza A virus). As to the kind of experiment: AlphaLISA competition vs 39.29. (Bead proximity is the source of the signal in Alpha formats.)
In experiment [16] the target is HA of B/Brisbane/60/2008 (Victoria) (influenza B virus). As to the kind of experiment: AlphaLISA competition vs CR9114.
For experiment [17], the target named is HA of B/Florida/04/2006 (Yamagata) (influenza B virus). As to the kind of experiment: AlphaLISA competition vs CR9114.
Experiment [18] has as its target HA of H3N2 A/Brisbane/10/2007 (influenza A virus). In words: AlphaLISA competition vs CR9114.
The target is the same in experiment [19]. As to the kind of experiment: AlphaLISA competition vs SD1036.
Experiment [20] has the same target. In words: AlphaLISA competition vs SD1038.
For experiment [21], the target named is HA of B/Florida/04/2006 (Yamagata) (influenza B virus). As to the kind of experiment: AlphaLISA competition vs CR8033.
For experiment [22], the target named is HA of B/Brisbane/60/2008 (Victoria) (influenza B virus). As to the kind of experiment: AlphaLISA competition vs CR8071.
The target in experiment [23] is HA of B/Harbin/7/94 (Yamagata) (influenza B virus). As to the kind of experiment: cell-based or functional assay.
The target in experiment [24] is HA of B/Lee/40 (influenza B virus) (UniProt P03460). In words: cell-based or functional assay.
Experiment [25] concerns the target HA of B/Malaysia/2506/04 (Victoria) (influenza B virus). As to the kind of experiment: cell-based or functional assay.
For experiment [26], the target named is HA of H1N1 A/New Caledonia/20/1999 (influenza A virus). In words: BLI steady state.
For experiment [27] the target is unchanged. In words: cell-based or functional assay.
The target of experiment [28] is HA of H1N1 A/Puerto Rico/8/34-MA (influenza A virus). As to the kind of experiment: cell-based or functional assay.
Experiment [29] addresses HA of H3N2 A/Brisbane/10/2007 (influenza A virus). In words: cell-based or functional assay.
Experiment [30] has as its target HA of H5N1 A/PR8 H5N1 HK97 (influenza A virus). As to the kind of experiment: cell-based or functional assay.
Experiment [31] addresses HA of H5N1 A/Vietnam/1194/04 (influenza A virus). As to the kind of experiment: cell-based or functional assay.
The target in experiment [32] is HA of H7N3 A/NIBRG/60 (A/mallard/NL/12/00) (influenza A virus). As to the kind of experiment: cell-based or functional assay.
Experiment [33] concerns the target HA of H1N1 A/Brisbane/59/07 (influenza A virus). As to the kind of experiment: cell-based or functional assay.
Experiment [34] deals with HA of H3N2 A/HK/1/68-MA (influenza A virus). In words: cell-based or functional assay.
The target in experiment [35] is HA of H3N2 A/Brisbane/10/2007 (influenza A virus). As to the kind of experiment: BLI steady state.
In experiment [36] the target is HA of H7N3 A/NIBRG/60 (A/mallard/NL/12/00) (influenza A virus). As to the kind of experiment: BLI steady state.
For experiment [37], the target named is hemagglutinin (HA) of influenza A/Brisbane/10/07 (H3N2) (influenza A virus A/Brisbane/10/07 (H3N2)). As to the kind of experiment: cell-based or functional assay.
For experiment [38], the target named is hemagglutinin (HA) of influenza A/New York/107/03 (PR8) (influenza A virus A/New York/107/03 (PR8)). As to the kind of experiment: cell-based or functional assay.
In experiment [39] the target is hemagglutinin (HA) of influenza A/chicken/Germany/n/49 (H10N7) (influenza A virus A/chicken/Germany/n/49 (H10N7)). In words: cell-based or functional assay.
Experiment [40] deals with hemagglutinin (HA) of influenza A/waterfowl/Hong Kong/MPA892/06 (H4) (influenza A virus A/waterfowl/Hong Kong/MPA892/06 (H4)). In words: cell-based or functional assay.
Experiment [41] concerns the target HA of H3N2 A/Brisbane/10/2007 (influenza A virus). In words: AlphaLISA competition vs CR8020.
Experiment [42] has the same target. As to the kind of experiment: AlphaLISA competition vs CR8057.
Experiment [43] concerns the target hemagglutinin (HA) of influenza virus H2N2 A/Guiyang/1/57 (influenza A virus). As to the kind of experiment: cell-based or functional assay.
In experiment [44] the target is hemagglutinin (HA) of influenza virus H2N2 A/WF/HK/MPU3156/05 (influenza A virus). As to the kind of experiment: cell-based or functional assay.
In experiment [45] the target is hemagglutinin (HA) of influenza virus H3N2 A/Brisbane/10/07 (influenza A virus). As to the kind of experiment: cell-based or functional assay.
Experiment [46] has as its target hemagglutinin (HA) of influenza virus H7N9 A/Anhui/1/13 (influenza A virus). As to the kind of experiment: cell-based or functional assay.

B1: MD2401 (protein)
chain: EVQLVESGGGLVQPGGSLRLSCAVSISIFDIYAMDWYRQAPGKQRDLVATSFRDGSTNYADSVKGRFTISRDNAKNTLYLQMNSLKPEDTAVYLCHVSLYRDPLGVAGGMGVYWGKGALVTVSSAAAGGGGSGGGGSGGGGSGGGGSGGGGSGGGGSGGGGSEVQLVESGGGLVQAGGSLKLSCAASGRTYAMGWFRQAPGKEREFVAHINALGTRTYYSDSVKGRFTISRDNAKNTEYLEMNNLKPEDTAVYYCTAQGQWRAAPVAVAAEYEFWGQGTQVTVSSLINLEGGGGSGGGGSGGGGSGGGGSGGGGSGGGGSGGGGSPAGEVQLVESGGGLVQPGGSLRLSCAATGFTLENKAIGWFRQTPGSEREGVLCISKSGSWTYYTDSMRGRFTISRDNAENTVYLQMDSLKPEDTAVYYCATTTAGGGLCWDGTTFSRLASSWGQGTQVTVSSAAAGGGGSGGGGSGGGGSGGGGSGGGGSGGGGSGGGGSEVQLVESGGGLVQPGGSLRLSCAATGFTLENKAIGWFRQTPGSEREGVLCISKSGSWTYYTDSMRGRFTISRDNAENTVYLQMDSLKPEDTAVYYCATTTAGGGLCWDGTTFSRLASSWGQGTQVTVSS
Turning to B1, the average neutralization titer turned out to be 277 nM in [1]; 165 nM in experiment [2]; 14.7 nM in [3]; 27.7 nM in [4]; 27.7 nM in experiment [5]; 36.3 nM in experiment [6]. For the same molecule, in experiment [7], the average neutralization titer stood at 27.7 nM.

B2: SD1087 (VHH)
VHH: EVQLVESGGGLVQPGGSLRLSCVISGLSLDTYAVGWFRQAPGKEREGITCISSGHGMTYYADSVKGRFTVSTDNAKNTVYLQMNGLQPEDTARYYCATESRYYCSDNWPAPQRYIYWGQGTQVTVSS
Regarding B2, the VNA titer is 10.2 nM in experiment [8] and more than 1000 nM in experiment [9]. Further, the hemagglutination inhibition titer in experiment [8] and in [9] was more than 50 µg/mL each time. Besides, the VNA IC50 in experiment [10] was more than 1000 nM; in experiment [11] it was more than 1000 nM; in experiment [12], 22 nM; in experiment [13], 59 nM; in [14], 1000 nM. The pIC50 in [15] is less than 7; in experiment [16] it was 7.5; in experiment [17], 8.8; in experiment [18], less than 7; in [19] it was less than 7; in experiment [20], less than 7. Also, the pIC50 in experiment [21] and in [22] was less than 7 throughout.

B3: SD2086 (VHH)
VHH: EVQLVESGGGLVQAGGSLRLSCATSGQTFSSYAMGWFRQAPGKEREFVAAISWNGGSTYYADSVKGRFTISRESPENLVYLQMNSLKPEDTAVYYCAARGAYYTGSYYLGSTYDYWGQGTQVTVSS
On to B3, for which the VNA titer in [8] amounted to 934 nM; in experiment [9], 815 nM; in [23] it was 964 nM; in experiment [24] it was 273 nM; in experiment [25] it was 546 nM.

B4: SD1045 (VHH)
VHH: EVQLVESGGGLVQAGGSLRLSCAASGSSFSINVMGWYRQAPGKQREMVATITYGGSTNYVDSVKGRFTISRDNAKNTVYLQMNSLKPEDTAVYYCNSRLAQINYWGQGTQVTVSS
B4 registered a Kd in experiment [26] of 5 nM. For the same molecule, the VNA titer in experiment [8] was more than 1000 nM; in [9], more than 1000 nM; in [27] it was 166 nM; in experiment [28], 206 nM; in experiment [29] it was 641 nM; in experiment [30], 117 nM. In addition, the VNA titer in experiment [31] was 63.5 nM; in experiment [32], more than 1000 nM.

B5: SD1025 (VHH)
VHH: EVQLVESGGGLVQAGGSLRLSCAASGRTYAMAWFRQAPGKEREFVAHINALGTRTYYSDSVQGRFTISRDNAKNTEYLQMNSLKPEDTAVYYCAAGGQWRAAPVADAAQYDFWGQGTQVTVSS
Regarding B5, the VNA titer in [33], in experiment [27], in [28], in [29], in experiment [34] and in experiment [31] was more than 1000 nM each time. In experiment [32], the VNA titer is 52 nM.

B6: SD1046 (VHH)
VHH: EVQLVESGGGLVQAGDSLRISCAASGRTLSIYSMGWFRQAPGKEREFVATIGWNSGRTFYPDSLKGRFTISRDNARNTLYLQMNNLRPEDTAVYYCAAAKGPLRLSSQADYWGQGTQVTVSS
Turning to B6, the Kd in experiment [35] was determined as 2 nM; in experiment [36], 3 nM. Also, the VNA titer in experiment [8] was more than 1000 nM; in experiment [9], more than 1000 nM; in experiment [33] it was more than 1000 nM; in experiment [27] it was more than 1000 nM; in experiment [29] it was 6.6 nM; in [31] it was more than 1000 nM. In [32], the VNA titer was determined as 26.4 nM. In addition, the VNA IC50 in experiment [37] amounted to 5 nM; in experiment [38], 34 nM; in experiment [39], 13 nM; in experiment [40], 3 nM. In addition, the negative-log IC50 (pIC50) in experiment [41] was 9.6; in experiment [42], less than 7; in [18] it was 9.9.

B7: MD2312 (bispecific antibody)
chain: EVQLVESGGGLVQAGDSLRLSCAASGPTFGMSAMGWFRQAPGKEREFVAAISGLGNPNYSDDVKGRFTISRENGRNTVYLQMNSLKPEDTAVYYCAQRKVYHVQGGDRPQAYDYWGQGTQVTVSSGGGGSGGGGSEVQLVESGGGLVQAGDSLRISCAASGRTLSIYSMGWFRQAPGKEREFVATIGWNSGRTFYPDSLKGRFTISRDNARNTLYLQMNNLRPEDTAVYYCAAAKGPLRLSSQADYWGQGTQVTVSSGGGGSGGGGSEVQLVESGGGLVQPGGSLRLSCAATGFTLENKAIGWFRQTPGSEREGVLCISKSGSWTYYTDSMRGRFTISRDNAENTVYLQMDSLKPEDTAVYYCATTTAGGGLCWDGTTFSRLASSWGQGTQVTVSS
In the case of B7, the average neutralization titer in [43] was less than 1000 nM; in [44], 21.6 nM; in experiment [45], 18.1 nM; in experiment [5] it was 5.8 nM; in [7], 7.7 nM; in experiment [46], 43.2 nM.
